Consider 16 molecules from US20250206837A1 (ELIXIRON IMMUNOTHERAPEUTICS HONG KONG, published 2025).

The target of assay [1] is T1, Recombinant His-tagged human CD36.ECD protein (Sino Biological) (human, UniProt P16671 30-439).
T1 construct: Bought protein; also called hCD36.ECD; hCD36; not shown: His tag
Briefly: ELISA, coated human CD36.ECD (FIG. 2C). As for the experimental part: (§1) ELISA materials and methods: Recombinant His-tagged human CD36.ECD protein or His-tagged mouse CD36.ECD protein (both from Sino Biological) was immobilized on 96 well microtiter plate at a concentration of 1 μg/mL in Coating Solution (SeraCare) overnight at 4° C. The wells were washed with wash solution (0.05% Tween20 in PBS) and blocked with 1% BSA in PBS. Serial dilutions of anti-CD36 antibodies were added to wells. After incubation at 37° C. for 1 h, the wells were washed with wash solution. Peroxidase-conjugated Goat anti-human kappa Light chain antibody (Sigma) was applied to each well at 37° C. for 1 h incubation. After washing, the wells were developed with TMB substrate for 5-10 min at room temperature and then stopped with 1 N HCl. Thereafter absorbance was measured at 450 nm and 650 nm. EC50 values were calculated through GraphPad Prism7.
(§2) The competitor anti-CD36 antibody ONA, which is derived from clone “ONA-0-v1” as disclosed in WO2021176424A1 in hIgG4-S228P-FALA format.
(In general: In an ELISA, binding on a coated surface is turned into a signal by an enzyme label.)

Assay [2] deals with T1, Recombinant His-tagged human CD36.ECD …. Briefly: ELISA, coated human CD36.ECD (FIG. 2B). The method, then:
as §1, §2

Assay [3] concerns the target T2, full-length human CD36-Flag overexpressed on stable F293 cells (human, UniProt P16671 2-472). Briefly: cell-based or functional assay.
For assay [4], the target named is T1, Recombinant His-tagged human CD36.ECD …. Briefly: ELISA, coated human CD36.ECD (FIG. 2D). The method, then: as §1, §2
The target in assay [5] is T2, full-length human CD36-Flag …. Description: flow cytometry, F293 cells overexpressing human CD36. The text has this:
(§3) After washing with FACS buffer (2% FBS in PBS), the cells were stained with anti-human IgG-Alexa Fluor 647 and analyzed by Attune NxT Flow Cytometer (Thermo Scientific).

Assay [6] concerns the target T3, mouse CD36-His overexpressed on stable F293 cells (mouse, UniProt Q08857 1-472).
T3 construct: Gene segment from Sino Biological; also called F293/mCD36; mCD36; not shown: His tag
Description: flow cytometry, F293 cells overexpressing mouse CD36.
From the text: as §3

Assay [7] addresses T4, rhesus CD36-His overexpressed on stable F293 cells (rhesus, UniProt P16671 2-472 (human entry)).
T4 construct: Gene segment from Sino Biological; also called F293/rhesusCD36; not shown: His tag
Briefly: flow cytometry, F293 cells overexpressing rhesus CD36.
From the text: as §3
Background: A flow cytometer gives signals particle by particle.

Assay [8] deals with T1, Recombinant His-tagged human CD36.ECD …. Description: ELISA, coated human CD36.ECD (FIG. 2A). As for the experimental part:
as §1, §2

The target of assay [9] is T3, mouse CD36-His overexpressed on stable …. Briefly: cell-based or functional assay.

T3 sequence (Q08857 whole entry): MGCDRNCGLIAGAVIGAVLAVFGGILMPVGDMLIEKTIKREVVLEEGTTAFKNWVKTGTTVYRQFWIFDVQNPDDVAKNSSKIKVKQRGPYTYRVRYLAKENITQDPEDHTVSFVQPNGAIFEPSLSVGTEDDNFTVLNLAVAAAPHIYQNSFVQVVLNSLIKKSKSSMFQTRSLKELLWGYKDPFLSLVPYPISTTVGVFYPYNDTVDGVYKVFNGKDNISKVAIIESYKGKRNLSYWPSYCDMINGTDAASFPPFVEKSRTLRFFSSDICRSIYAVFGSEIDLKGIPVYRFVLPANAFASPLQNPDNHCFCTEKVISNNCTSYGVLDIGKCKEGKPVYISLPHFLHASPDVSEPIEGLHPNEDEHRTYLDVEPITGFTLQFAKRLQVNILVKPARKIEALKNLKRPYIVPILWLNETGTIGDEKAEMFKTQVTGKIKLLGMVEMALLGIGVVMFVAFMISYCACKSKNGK
T2 sequence (P16671 2-472): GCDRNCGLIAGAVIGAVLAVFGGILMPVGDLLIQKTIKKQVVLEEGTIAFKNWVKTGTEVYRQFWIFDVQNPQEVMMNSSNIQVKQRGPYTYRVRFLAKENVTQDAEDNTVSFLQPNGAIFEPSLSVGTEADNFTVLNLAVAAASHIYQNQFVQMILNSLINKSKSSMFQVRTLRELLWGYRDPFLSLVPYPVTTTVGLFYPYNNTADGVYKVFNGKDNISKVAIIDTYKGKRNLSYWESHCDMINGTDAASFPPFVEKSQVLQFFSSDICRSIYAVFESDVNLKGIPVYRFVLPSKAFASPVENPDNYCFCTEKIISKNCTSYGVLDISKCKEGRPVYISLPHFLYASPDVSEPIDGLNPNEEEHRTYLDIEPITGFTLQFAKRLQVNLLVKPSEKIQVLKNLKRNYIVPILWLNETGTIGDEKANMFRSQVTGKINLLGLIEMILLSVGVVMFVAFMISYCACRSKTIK
T1 sequence (P16671 30-439 limits assumed): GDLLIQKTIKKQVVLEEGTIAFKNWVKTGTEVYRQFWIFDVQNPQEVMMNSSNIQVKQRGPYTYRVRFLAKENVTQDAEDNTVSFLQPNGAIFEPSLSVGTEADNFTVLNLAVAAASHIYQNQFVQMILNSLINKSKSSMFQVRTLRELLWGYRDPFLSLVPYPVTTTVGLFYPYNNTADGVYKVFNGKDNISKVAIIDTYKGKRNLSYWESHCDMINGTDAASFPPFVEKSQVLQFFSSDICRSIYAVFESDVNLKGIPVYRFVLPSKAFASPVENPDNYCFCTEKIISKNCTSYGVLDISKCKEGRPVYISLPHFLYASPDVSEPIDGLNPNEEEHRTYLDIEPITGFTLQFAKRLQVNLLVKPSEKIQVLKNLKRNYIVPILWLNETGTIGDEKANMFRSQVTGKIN
T4 sequence (P16671 other isoform, or with tags, fused parts or gaps): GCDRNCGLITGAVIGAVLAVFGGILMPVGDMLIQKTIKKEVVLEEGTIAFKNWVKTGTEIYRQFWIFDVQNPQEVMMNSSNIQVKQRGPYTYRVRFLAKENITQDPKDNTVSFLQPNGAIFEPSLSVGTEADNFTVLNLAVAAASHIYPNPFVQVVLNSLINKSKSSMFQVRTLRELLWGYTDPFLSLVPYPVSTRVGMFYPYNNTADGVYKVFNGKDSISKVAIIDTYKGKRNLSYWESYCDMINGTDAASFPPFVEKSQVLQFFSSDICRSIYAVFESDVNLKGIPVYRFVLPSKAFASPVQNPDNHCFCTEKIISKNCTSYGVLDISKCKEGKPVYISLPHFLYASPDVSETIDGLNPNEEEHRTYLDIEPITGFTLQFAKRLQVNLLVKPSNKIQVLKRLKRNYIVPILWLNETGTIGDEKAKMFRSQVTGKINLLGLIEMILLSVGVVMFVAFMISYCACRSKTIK

B1: 117_30AA (antibody, V domains shown)
VH: EVQLVESGGGLVQPGGSLRLSCAASGFTIAAFGIHWVRQAPGKGLEWVAWIAPYGGYTYYADSVKGRFTISADTSKNTAYLQMNSLRAEDTAVYYCARSFFGYFDYWGQGTLVTVSS
VL: DIQMTQSPSSLSASVGDRVTITCRASQDVSNWVAWYQQKPGKAPKLLISYATSLYSGVPSRFSGSGSGTDFTLTISSLQPEDFATYYCQQHSNAPLTFGQGTKVEIKR
notes: full-length IgG, human kappa
Usually EC50 stands for the concentration needed to bring the measured effect to its halfway point. For B1, the concentration for a half-maximal effect (EC50) in assay [1] stood at 145 pM.

B2: 117_30FA (antibody, V domains shown)
VH: EVQLVESGGGLVQPGGSLRLSCAASGFTIFAFGIHWVRQAPGKGLEWVAWIAPYGGYTYYADSVKGRFTISADTSKNTAYLQMNSLRAEDTAVYYCARSFFGYFDYWGQGTLVTVSS
VL: DIQMTQSPSSLSASVGDRVTITCRASQDVSNWVAWYQQKPGKAPKLLISYATSLYSGVPSRFSGSGSGTDFTLTISSLQPEDFATYYCQQHSNAPLTFGQGTKVEIKR
notes: full-length IgG, human kappa
Turning to B2, the EC50 in [1] is 202 pM.

B3: 117_31D (antibody, V domains shown)
VH: EVQLVESGGGLVQPGGSLRLSCAASGFTISDFGIHWVRQAPGKGLEWVAWIAPYGGYTYYADSVKGRFTISADTSKNTAYLQMNSLRAEDTAVYYCARSFFGYFDYWGQGTLVTVSS
VL: DIQMTQSPSSLSASVGDRVTITCRASQDVSNWVAWYQQKPGKAPKLLISYATSLYSGVPSRFSGSGSGTDFTLTISSLQPEDFATYYCQQHSNAPLTFGQGTKVEIKR
notes: full-length IgG, human kappa
On to B3, for which the EC50 in [2] stood at 37.5 pM.

B4: 117_DA57D (antibody, V domains shown)
VH: EVQLVESGGGLVQPGGSLRLSCAASGFTIDAFGIHWVRQAPGKGLEWVAWIAPYGGDTYYADSVKGRFTISADTSKNTAYLQMNSLRAEDTAVYYCARSFFGYFDYWGQGTLVTVSS
VL: DIQMTQSPSSLSASVGDRVTITCRASQDVSNWVAWYQQKPGKAPKLLISYATSLYSGVPSRFSGSGSGTDFTLTISSLQPEDFATYYCQQHSNAPLTFGQGTKVEIKR
notes: full-length IgG, human kappa
With B4, the “oxLDL uptake IC50 (nM), F293/hCD36” value in assay [3] was determined as 0.332 nM. Also, the half-maximal effective concentration (EC50) amounted to 49 pM in assay [4], 0.089 µg/mL in [5], 0.271 µg/mL in assay [6] and 0.416 µg/mL in [7].

B5: 117_32D (antibody, V domains shown)
VH: EVQLVESGGGLVQPGGSLRLSCAASGFTISSDGIHWVRQAPGKGLEWVAWIAPYGGYTYYADSVKGRFTISADTSKNTAYLQMNSLRAEDTAVYYCARSFFGYFDYWGQGTLVTVSS
VL: DIQMTQSPSSLSASVGDRVTITCRASQDVSNWVAWYQQKPGKAPKLLISYATSLYSGVPSRFSGSGSGTDFTLTISSLQPEDFATYYCQQHSNAPLTFGQGTKVEIKR
notes: full-length IgG, human kappa
Consider B5, for which, in [2], the concentration for a half-maximal effect (EC50) came to 27.6 pM.

B6: 117_101K (antibody, V domains shown)
VH: EVQLVESGGGLVQPGGSLRLSCAASGFTISSFGIHWVRQAPGKGLEWVAWIAPYGGYTYYADSVKGRFTISADTSKNTAYLQMNSLRAEDTAVYYCARSFKGYFDYWGQGTLVTVSS
VL: DIQMTQSPSSLSASVGDRVTITCRASQDVSNWVAWYQQKPGKAPKLLISYATSLYSGVPSRFSGSGSGTDFTLTISSLQPEDFATYYCQQHSNAPLTFGQGTKVEIKR
notes: full-length IgG, human kappa
With B6, the concentration for a half-maximal effect (EC50) in [4] came out at 1460 pM.

B7: 117_58E (antibody, V domains shown)
VH: EVQLVESGGGLVQPGGSLRLSCAASGFTISSFGIHWVRQAPGKGLEWVAWIAPYGGYEYYADSVKGRFTISADTSKNTAYLQMNSLRAEDTAVYYCARSFFGYFDYWGQGTLVTVSS
VL: DIQMTQSPSSLSASVGDRVTITCRASQDVSNWVAWYQQKPGKAPKLLISYATSLYSGVPSRFSGSGSGTDFTLTISSLQPEDFATYYCQQHSNAPLTFGQGTKVEIKR
notes: full-length IgG, human kappa
Turning to B7, the concentration giving a half-maximal response (EC50) in assay [8] came to 422 pM.

B8: 117_57R (antibody, V domains shown)
VH: EVQLVESGGGLVQPGGSLRLSCAASGFTISSFGIHWVRQAPGKGLEWVAWIAPYGGRTYYADSVKGRFTISADTSKNTAYLQMNSLRAEDTAVYYCARSFFGYFDYWGQGTLVTVSS
VL: DIQMTQSPSSLSASVGDRVTITCRASQDVSNWVAWYQQKPGKAPKLLISYATSLYSGVPSRFSGSGSGTDFTLTISSLQPEDFATYYCQQHSNAPLTFGQGTKVEIKR
notes: full-length IgG, human kappa
Take B8: the 50% effective concentration (EC50) in [8] was 69.5 pM.

B9: 117_101A (antibody, V domains shown)
VH: EVQLVESGGGLVQPGGSLRLSCAASGFTISSFGIHWVRQAPGKGLEWVAWIAPYGGYTYYADSVKGRFTISADTSKNTAYLQMNSLRAEDTAVYYCARSFAGYFDYWGQGTLVTVSS
VL: DIQMTQSPSSLSASVGDRVTITCRASQDVSNWVAWYQQKPGKAPKLLISYATSLYSGVPSRFSGSGSGTDFTLTISSLQPEDFATYYCQQHSNAPLTFGQGTKVEIKR
notes: full-length IgG, human kappa
As for B9, the concentration for a half-maximal effect (EC50) in [4] came to 75.1 pM.

B10: 117_30DT (antibody, V domains shown)
VH: EVQLVESGGGLVQPGGSLRLSCAASGFTIDTFGIHWVRQAPGKGLEWVAWIAPYGGYTYYADSVKGRFTISADTSKNTAYLQMNSLRAEDTAVYYCARSFFGYFDYWGQGTLVTVSS
VL: DIQMTQSPSSLSASVGDRVTITCRASQDVSNWVAWYQQKPGKAPKLLISYATSLYSGVPSRFSGSGSGTDFTLTISSLQPEDFATYYCQQHSNAPLTFGQGTKVEIKR
notes: full-length IgG, human kappa
As for B10, the EC50 in assay [1] came out at 103 pM.

B11: 117_30AT (antibody, V domains shown)
VH: EVQLVESGGGLVQPGGSLRLSCAASGFTIATFGIHWVRQAPGKGLEWVAWIAPYGGYTYYADSVKGRFTISADTSKNTAYLQMNSLRAEDTAVYYCARSFFGYFDYWGQGTLVTVSS
VL: DIQMTQSPSSLSASVGDRVTITCRASQDVSNWVAWYQQKPGKAPKLLISYATSLYSGVPSRFSGSGSGTDFTLTISSLQPEDFATYYCQQHSNAPLTFGQGTKVEIKR
notes: full-length IgG, human kappa
In the case of B11, the EC50 in [1] turned out to be 247 pM.

B12: 117_57D (antibody, V domains shown)
VH: EVQLVESGGGLVQPGGSLRLSCAASGFTISSFGIHWVRQAPGKGLEWVAWIAPYGGDTYYADSVKGRFTISADTSKNTAYLQMNSLRAEDTAVYYCARSFFGYFDYWGQGTLVTVSS
VL: DIQMTQSPSSLSASVGDRVTITCRASQDVSNWVAWYQQKPGKAPKLLISYATSLYSGVPSRFSGSGSGTDFTLTISSLQPEDFATYYCQQHSNAPLTFGQGTKVEIKR
notes: full-length IgG, human kappa
As for B12, in [3], the “oxLDL uptake IC50 (nM), F293/hCD36” value stood at 0.349 nM. For the same molecule, the “oxLDL uptake IC50 (nM), F293/mCD36” value in [9] came out at 0.783 nM. The concentration giving a half-maximal response (EC50) came out at 52.9 pM in [8], 0.111 µg/mL in [5], 0.309 µg/mL in assay [6] and 0.397 µg/mL in assay [7].

B13: 117_30FT (antibody, V domains shown)
VH: EVQLVESGGGLVQPGGSLRLSCAASGFTIFTFGIHWVRQAPGKGLEWVAWIAPYGGYTYYADSVKGRFTISADTSKNTAYLQMNSLRAEDTAVYYCARSFFGYFDYWGQGTLVTVSS
VL: DIQMTQSPSSLSASVGDRVTITCRASQDVSNWVAWYQQKPGKAPKLLISYATSLYSGVPSRFSGSGSGTDFTLTISSLQPEDFATYYCQQHSNAPLTFGQGTKVEIKR
notes: full-length IgG, human kappa
As for B13, the half-maximal effective concentration (EC50) in [1] worked out at 254 pM.

B14: 117_30D (antibody, V domains shown)
VH: EVQLVESGGGLVQPGGSLRLSCAASGFTIDSFGIHWVRQAPGKGLEWVAWIAPYGGYTYYADSVKGRFTISADTSKNTAYLQMNSLRAEDTAVYYCARSFFGYFDYWGQGTLVTVSS
VL: DIQMTQSPSSLSASVGDRVTITCRASQDVSNWVAWYQQKPGKAPKLLISYATSLYSGVPSRFSGSGSGTDFTLTISSLQPEDFATYYCQQHSNAPLTFGQGTKVEIKR
notes: full-length IgG, human kappa
Turning to B14, the EC50 in [2] was determined as 141 pM.

B15: 117_57A (antibody, V domains shown)
VH: EVQLVESGGGLVQPGGSLRLSCAASGFTISSFGIHWVRQAPGKGLEWVAWIAPYGGATYYADSVKGRFTISADTSKNTAYLQMNSLRAEDTAVYYCARSFFGYFDYWGQGTLVTVSS
VL: DIQMTQSPSSLSASVGDRVTITCRASQDVSNWVAWYQQKPGKAPKLLISYATSLYSGVPSRFSGSGSGTDFTLTISSLQPEDFATYYCQQHSNAPLTFGQGTKVEIKR
notes: full-length IgG, human kappa
With B15, the EC50 in [8] is 1520 pM.

B16: 117_31A (antibody, V domains shown)
VH: EVQLVESGGGLVQPGGSLRLSCAASGFTISAFGIHWVRQAPGKGLEWVAWIAPYGGYTYYADSVKGRFTISADTSKNTAYLQMNSLRAEDTAVYYCARSFFGYFDYWGQGTLVTVSS
VL: DIQMTQSPSSLSASVGDRVTITCRASQDVSNWVAWYQQKPGKAPKLLISYATSLYSGVPSRFSGSGSGTDFTLTISSLQPEDFATYYCQQHSNAPLTFGQGTKVEIKR
notes: full-length IgG, human kappa
Consider B16, for which, in [2], the 50% effective concentration (EC50) turned out to be 99.1 pM.
